Paper PMC5013389, “Competition between members of the tribbles pseudokinase protein family shapes their interactions with mitogen activated protein kinase pathways” (Scientific Reports, 2016)

Molecular target: T1, MKK4-V1 (full length MKK4 fused to the V1 fragment of Venus YFP) (UniProt P45985 1-399)
T1 construct: source: HeLa, transfected, in live cells; not shown: Venus YFP fragment V1, C-terminal, kept
T1 sequence (looked up): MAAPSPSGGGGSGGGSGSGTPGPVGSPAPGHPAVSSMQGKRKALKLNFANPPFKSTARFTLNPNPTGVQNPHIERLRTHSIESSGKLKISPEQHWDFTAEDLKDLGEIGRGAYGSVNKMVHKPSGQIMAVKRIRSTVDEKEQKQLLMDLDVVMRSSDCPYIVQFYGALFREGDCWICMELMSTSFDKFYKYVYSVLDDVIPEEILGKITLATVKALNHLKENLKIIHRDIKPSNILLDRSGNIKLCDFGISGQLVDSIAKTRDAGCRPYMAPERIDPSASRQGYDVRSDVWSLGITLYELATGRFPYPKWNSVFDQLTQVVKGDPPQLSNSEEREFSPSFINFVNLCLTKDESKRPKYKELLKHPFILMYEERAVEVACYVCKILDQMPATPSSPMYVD
Test: split reporter (BiFC, NanoBiT); competitive PCA in HeLa cells: MKK-V1 and TRIB-V2 co-transfected with an increasing dose of an untagged competitor plasmid (ERK, p38 or TRIB); mean fluorescence by flow cytometry 24 h after transfection; doses are plasmid amounts relative to TRIB-V2
Conditions: partners not purified

B1: untagged TRIB-3 (natural protein, UniProt Q96RU7 1-358, looked up)
chain: MRATPLAAPAGSLSRKKRLELDDNLDTERPVQKRARSGPQPRLPPCLLPLSPPTAPDRATAVATASRLGPYVLLEPEEGGRAYQALHCPTGTEYTCKVYPVQEALAVLEPYARLPPHKHVARPTEVLAGTQLLYAFFTRTHGDMHSLVRSRHRIPEPEAAVLFRQMATALAHCHQHGLVLRDLKLCRFVFADRERKKLVLENLEDSCVLTGPDDSLWDKHACPAYVGPEILSSRASYSGKAADVWSLGVALFTMLAGHYPFQDSEPVLLFGKIRRGAYALPAGLSAPARCLVRCLLRREPAERLTATGILLHPWLRQDPMPLAPTRSHLWEAAQVVPDGLGLDEAREEEGDREVVLYG
notes: TRIB3, untagged expression plasmid; also called unlabelled tribbles; untagged tribbles; source: HeLa, transfected, in live cells
  fold affinity to MKK4 relative to TRIB2: ~15 fold
